{"source": "paper PMC2500141", "about": "(The Journal of Cell Biology, 2008)", "binders": {"B1": {"name": "GST-hFis1 (hFis1-ΔC, without 30 amino acids at the C terminus) (domain or fragment, human, UniProt Q9Y3D6 1-122, looked up)", "chain": "MEAVLNELVSVEDLLKFEKKFQSEKAAGSVSKSTQFEYAWCLVRSKYNDDIRKGIVLLEELLPKGSKEEQRDYVFYLAVGNYRLKEYEKALKYVRGLLQTEPQNNQAKELERLIDKAMKKDG"}}, "target": "Drp1-6His phosphorylated at Ser600 by CaMKIα (UniProt O00429-4 1-699, phosphoserine at 600 (phosphorylated in vitro by CaMKIα))", "test": "pull-down"}
{"binder": "B1", "values": [{"measurement": "binding result", "value": "binds"}]}
